The source of these data is the DeepSol protein solubility set.

This series in a line: soluble on expression in E. coli; label from the status in PepcDB or PDB records.
“MGSDKIHHHHHHAAVNRVGMGSSWRAGVKVGVGVSYQFEPGWIGLKSGLYYANRGYSLGDYPRTTESATYVLKEMMTGGITQHFLQLPVMADFSWKVSKEVRMHLAVGMYAGVSVKNDTNWGSSFTMGYSKEPQALGKYVKSTGLGYSYGYGHSGYDEAENADHPFRDVNSFDWGLTTSFGIEVNNWVMNLGYDLSLGDEGGNYKIDGDNFSLYEVRSVGANYNTMSLTVGYKFKL”: the “soluble on expression in E. coli” value was “not soluble”.
As to “MGSDKIHHHHHHACDGILEGIYDSPAASDSNELGFIRTDPSTHSGTIYIDATDYRRWTFIDFHTQKVDSVNVTDSEQKEPEEWDIAVHRYDVKTNAGAVLETGFTGFSALRNADAMPEGAYVEDVWTTAKIAIDMSGMMDGNIVYMESYYNEELSKWLNVDKSNMPPTYTLSNKVYMVKLKDGTYAAVRLTNYMNASGVKGFMTIDYIYPFEL”, the “soluble on expression in E. coli” value is “not soluble”.
For “MGSDKIHHHHHHACSSEEGGSQAMGGKGAVILDLAAETVFDTKTKAVDESTYLTDRPLADYKVKILDAQGHVVSGCEWKYSERPTGLIELSNGSYTVVASDGEEFNVNASTRNGIYMYGSSRFDVNSDKVAAVNVACKPACGKLVVKFGDTMATYFSDYAVHFSTQAAGENGSIIWPKGDTDPLYVKLAEAGENVTATFQFTKKADGTNAEVNTLTREMKWGSMWTITVNPKVEDTTGKVGITITFDDSTNDKPIDIEIPSDWL”, the “soluble on expression in E. coli” value is given as “not soluble”.
With “MGSDKIHHHHHHADDSVKIGFITDMSGLYADIDGQGGLEAIRMAVADFGGKVNGKPITVVYADHQNKADIAASRAREWFDRDGVDMLIGGTNSATGLSMNTVAGEKKKVYISIGAGADTLTNEQCTPYTVHYAYDTTALAKGTGSAVTKQGGKTWYFLTADYAFGKALEKNTADVVKANGGQVLGAVRHPLSASDFSSFLLQAQASKAQILGLANAGGDTINSIKAAKEFGITKTMKLAALLVFIDDIHSLGLETTQGLVLTDSWYWNKDATTRKWAERYFDKMKKMPSSLQAADYSATMTYLNAVKAVGSTDSDKVMAQLKKTKIDDFYAKGYIRQDGSMIHDMYLMQVKTPAESREPWDYYKITATIPGEQAFTTKAETRCALWK”, the “soluble on expression in E. coli” value is reported as “not soluble”.
The same measure for “MGSDKIHHHHHHADNAPAKVQTALKKMYPKADGIAWSQDGGYYCADFMMNGYEKNVWFNAQGQWQMTQTEWGDTDELSATVYNAYASGPYSGWQVEDVTYVEFPKWQPIIVIKVGQQNVDIQYQLFYSPNGTLLRTRNVSYMGDILGPGTFL”: “not soluble”.
For the sequence “MGSDKIHHHHHHADNNKWKPLFGKNLENANYNPEVWSETDGVLGAVKDESIWTKDEYENFELDLDFKTDVGTNSGVVVYCTDTKDWIPNSVEIQIADDHCEKWGNGKPYEKCGAIYGHLGAVQDKVVKKPGEWNHMRIKCAGQHIMVILNGKKVTEMDMSKWTSGTKNPDGSDIPSWLPKPFAELPTKGFIGLQGKHGDSLIWFRNIKIRSL”, the “soluble on expression in E. coli” value is “not soluble”.
As for “MGSDKIHHHHHHADTASFLFDKYEDAQVLLRAGGELKSKMNYSIVVNKFYFIDPQDKQVKELANPGDILLIKIAGRTFYPESNGAGIEMLPTKPVVYVQYKATARKEAPMGAYGTRSETTAVQSYGTITSNGQSYKLEGEKIIVSNRHHVYWVEKDDKMKQFRNFKQLAKIYSKHRAEVEKYIEDNKVNFEDVDQIVKLCAYADSLK”, the “soluble on expression in E. coli” value was “not soluble”.
Consider “MGSDKIHHHHHHAEDDRMTPLSADSGDTADELIPIHISLTGDNDYHSSSFNDASTRSHSPLIAEWVGVKAFSPTRTGEQPDYEGPRIASMELTEDTLPRVSTRATVPAGVYFRLIVFRKSGNNYVFQSVADYASNGTGTPVLERGKLLTRSGTIRVVGYSFNTTADLGDMPSTYAYNSSTVSIPDMSKDFMTFDSGDITNVNSLSHNLPVSFSQKLCKLTITISPTGFPSNTITNCTGVYVKQGGNSTSWKIGPSTNVVAANTNNTAAFSPNTTLNTTIRMVPFAGARTITVHFNTLTVGGRTVNNNTEITSTQSVQLKEGKSYTLKIQFKKGPGINVPASNINLTQNGCTENDKTILSKLRWAEGNLNSQSNYNLTWASSTTDYGYYYIWKNVYVSSGYTGYGAVDPCTRLDESIYGSGWRTPTRSEFISLSRCSNKQLVKYNGIQGMWFMNSSTGLFLPAAGYRDGDKGSGTTATAYTNGTGSYYWSSDLNGNSAYGLYILKNDVFVDANGNRKSGVSVRCVHNL”, for which the “soluble on expression in E. coli” value is on record as “not soluble”.
For the sequence “MGSDKIHHHHHHAEPVADPMEEEGISVVRYDKLLDEYVRFNSFSALQKMNLEYALPTKLLIEDVLAIGQVSDDHIFQRLKTFYSDTTLVRLIEDVEAKYPELESVEKNLTKGFGKLQKEIPDIMIPMIYTQISAFNESIVLSDSVLGISLDKYMGEDYPLYKRFYYNYQRRTMRPDRIVPDCLVFYLMSQYPFPMDYSRTLLDVMMHYGKINYVVQHLLDYSSSEEALGYSDLEREWCKENQQQMWRYILEQDHLHATDPMVVRQYTRPAPFTNTLGENAPSMVGTWIGTKIITSYMKHHKKTTLRQLLEMSDYERMFTESRFNP”, the “soluble on expression in E. coli” value is given as “not soluble”.
The same measure for “MGSDKIHHHHHHAERISFFYPPFGEFSLSVDSLETFAKVGKIDRDFSFYASRATPQQLAQLRDLLQQRFNLTPTLVSQVTYSPIGEQLVQQLGKLLLTESRQNGFYAIRASLILAAADREGLTVVNLLRKFPSNTVRVNFTEGLRIVDDLSQLLKKKDEVVASLQKEAIAQAANSTVDFSKQPDLRSPGKFRWLKKSLELNDISRSRRLPVDIYLPTTQNSEPTDQNSPSPPFPLIVISHGLASDRSTFVYLAEHLASYGFAVAVLEHPGSNAKRFQEYFAGLASPPEPEEFIDRPLDIKYLLDELQRLEKSDPSLHGKLNFQQVGAIGQSFGGYTVLTLAGAKINFEQLRQDCNPNNSSFNLSLLLQCEASKLPQKNYELKDDRIKAIMAINPIDSLVLGEGGVSQIKMPVMLVAGSQDIFAPPVFEQIRPFTWLSDPNKYLALIENATHFSAIAEPTPENDVLPVPPALLGPDRDAVYSYLNALSVAFMETHLLNRPEYRSYLQPSYATFISKEPLNLSILQSLSVAQFNQIWSASIPQSAKLSNPQPTPR”: “not soluble”; for “MGSDKIHHHHHHAICLRDDIGNYVIKWETDPVMEGIVKMTVSDNPDLFTNESPIIYANIKDGVATYITNDNISRKYFRLSFNDKYPRIIGARSAVMDSVQNFRDLGGYTSTNGKTVKWGKVFRSGELSSLSEWDSIRLDNLGIKTIIDLRTNQETLTAPIKYTKANILQIPISVGKIADAPQRVIEGRMRKGDAGVYMEDEYLQFVTDNTDQFAKVLEQFQNEDNYPILISCSYGKDRTGFLTAMLLAALDIPRDAIMEDYLTSNQYIDTSHLADIVKHLSTDAQESITVFLTANEGLMDLAFHKIKKEYGSTEKYLSKGLRLTDKKRERLKDILLY”: “not soluble”.
For the sequence “MGSDKIHHHHHHAKDKDAYRQYGINCIENGSYDDAVDAFQKALDQSVGSVGAEELDICYYKAKAQYLSGDVDGAIDTYTAIIDYNKDSDAYYLRGCIYFAKNDSDKGLKDFKTALSENNDNYELYLGVYETLSKYGMNDQGKEYLDNALKLKAKTADDYMQRGRIYTMLGDYDSAIKSLQKAIDEKLVKANYYMGEVYQKKGDNDSSQKYFKKYLDSGEADSYELMNMGQAQMDNGNYDTAITYFQNALELESVPNKQQITKAMIIAYEYSGDFATAKSKMEEYMKDYPDDEDAAREYQFLETR”, the “soluble on expression in E. coli” value is on record as “not soluble”.
As for “MGSDKIHHHHHHALICNSAVTTTASTLYSWHQVRNTLAIMFNKRHIERHQLPCVLKVFNRFTGQEIGQLGNASENGLMVISQLPVLVGPDYELQLRMPLPGGGHQFVNLTASCLWCREDQTPGHYDSGFMLLQSPREYDDFVRSLRDYFSFRPANAPV”, the “soluble on expression in E. coli” value was “not soluble”.
For the sequence “MGSDKIHHHHHHAMDNYDYETVVTLIEPDCQDSLLLITKAQALKAMNRYPEAIGVLNSLILKDSTNTKVLIDLAECYKLTGNSRRAANCYQKAMNLQPENKFFRLQFIRSLLASEDYEEARTACHGWLERDSLSATGYKYLGQAYEGLQDAASAFLSYNIAYRRDSLDAQTVARIAGIFNNNQQFKDAVDVTEVYRLSDTTNIDVNRQNAKAYCMLKEYGTAVKRYESLKELGDRSFLTLYYLGVSHYGDNWFYGAYDNLKEAYQKNPMDVNVLYYLAKASARTSWKKEGVEYMEEAFRIAVPSDSMMVRLYDGLVECYDYAGDTKKEVEALEKLYIYTKKNSILYKIACLYDWKEDEKNAIRYYRKYMATVSEDQRYALDEDGNPVEDRITLYQQAWKRIKKIKEEGFFRGDIPTKSFPVEKKDTLALRHAK”, the “soluble on expression in E. coli” value is “not soluble”.
With “MGSDKIHHHHHHANQKSEHDHVAKVPKSYLPSGSVMAKEASANLKLSEKLSLIDGQWDSTTDDAASYEMDEQDYQAVATCRKSIEKLYDEKLYPVNLSPDYSNWYTWEAAAKKASDNTFNTYTAYYWIIRFEKYDGTQNHTIWMLEDGTIIMAKAHMKDISDMSEYKEVLQADDESQAENDLSAYKGYFDYSGIDFSKLNLISETTAVEQKNNESYEVLQFLQENEYVYAIHEK”, the “soluble on expression in E. coli” value is “not soluble”.
On to “MGSDKIHHHHHHAPSEAQQFTEFWTPGKPNPSICKSPLLVSTPLGLPRCLQASNVVKRLQKLEDIASLNDGNRAAATPGYQASVDYVKQTLQKAGYKVSVQPFPFTAYYPKGPGSLSATVPQPVTYEWEKDFTYLSQTEAGDVTAKVVPVDLSLGAGNTSTSGCEAEDFANFPAGSIALIQRGTCNFEQKAENAAAAGAAGVIIFNQGNTDDRKGLENVTVGESYEGGIPVIFATYDNGVAWSQTPDLQLHLVVDVVRKKTETYNVVAETRRGNPNNVVMVGAHLDSVFEGPGINDNGSGSAAQLEMAVLLAKALPVNKVRFAWWGAEEAGLVGSTHYVQNLAPEEKKKIKAYLNFDMIGSPNFGNFIYDGDGSDFGLQGPPGSAAIERLFEAYFRLRGQQSEGTEIDFRSDYAEFFNSGIAFGGLFTGAEGLKTEEQAQKYGGTAGKAYDECYHSKCDGIANINQDALEIHSDAMAFVTSWLSLSTKVVDDEIAAAGQKAQSRSLQMQKSASQIERWGHDFIK”, for which the “soluble on expression in E. coli” value is “not soluble”.
Regarding “MGSDKIHHHHHHAQDKKKEFKMPTGYAGITHEMSEFYEPVPPVVTPGTDLKGGGFTAPSDAIVLFDGKDLSAWESVKGGAAEWDVHDGVFTVNKKKGDIQTKQKFNDFQMHIEWQVPTNITGESQSRGNSGIFLQGMYEVQVLDCYNNPTYVNGQTGSIYKQSIPLANAMRKPGEWNVYDIIYTAPTFKEDGSYRTHPTVTVIQNGVVLQNHTTILGTTEWIGFPQVKKHGAGPIILQSHGDPSEPISFRNIWIREL”, the “soluble on expression in E. coli” value is listed as “not soluble”.
For the sequence “MGSDKIHHHHHHAQSKSSVYKPWSHGQLKVSKENRYLMNADGTPFFWLGDTGWLLPEKLNRDEAAYYLEHCRQAGFNVVQVQTINGVPAMNFYGQYSMIDGFNFKNIDRKGVYGYWDHMDYIIQKAEQNGIYIAMVCIWGGLVRSGKMNVEEAKAYGRFLGERYKDAPNIIWVIGGDTYADRNTEIWEALANSILAVDENHIMTFHPFGRTSSATHLNNKEWMDMNMFQSGHRRYGQKKGDGDTSVTGLEEDNWRYVEEALSMTPLKPVLDAEPSYEGIPQGLHDPAQPRWRDCDVRRYGYWSVFAGSCGHTYGHNNIMQFLKPGTPGGYGADGIEKPWYKAMQDPGFNQMKYLKNLMLTFPYFERVPDQSVIAGTNGNRYDRAIATRGKDYLLVYNYSGNPMSVDLTKISGAKKKVWWYSPKDGKLSFIGEFDSKITPFTYDGSYNRDNDQVLIAIDSSKNYISTEWLELPMVNQ”, the “soluble on expression in E. coli” value is reported as “not soluble”.
Regarding “MGSDKIHHHHHHAQTPNTLTKKEKKAGWELLFNGKDFSGWRQCNGTAMPANWVIEDNAMKVFTGEGKKPGQGANGDILYQNKKFKNFELSVDWKASKMGNSGIFYYVREVPGKPIYYAAPEVQVLDNVDATDNKLANHLAGSLYDMLPADPKTVNPAGEWNTIVIRVKDGKVTHTQNGKKVVEYTLWSKEWDDLVANSKFKNFPGFTEGISKEGYIGLQDHGYPIWFRNIKIRELK”, the “soluble on expression in E. coli” value is given as “not soluble”.
